Experimental findings from PMC4497498, “Kv1.3 contains an alternative C-terminal ER exit motif and is recruited into COPII vesicles by Sec24a” (BMC Biochemistry, 2015) are described below.

Data set [1] concerns the molecule itself. Briefly: native gel or EMSA + other: negative stain electron microscopy; purified Kv1.3 in Fos-12 or amphipol A8-35 on a 4-16 % native gel; negative stain EM with 2D class averages of Kv1.3 in A8-35; tetramer. For orientation: A gel shift assay detects complexes by their altered migration in electrophoresis.
Data set [2] has as its target T1, Sec24a^341 (Sec24a lacking the first 341 residues) (human, UniProt O95486 342-1093).
T1 construct: Sec24a, COPII cargo adaptor subunit, human; ~80 kDa; source: Hi5 insect cells (baculovirus), purified (HisPur Cobalt resin, Superose 6)
T1 sequence (looked up): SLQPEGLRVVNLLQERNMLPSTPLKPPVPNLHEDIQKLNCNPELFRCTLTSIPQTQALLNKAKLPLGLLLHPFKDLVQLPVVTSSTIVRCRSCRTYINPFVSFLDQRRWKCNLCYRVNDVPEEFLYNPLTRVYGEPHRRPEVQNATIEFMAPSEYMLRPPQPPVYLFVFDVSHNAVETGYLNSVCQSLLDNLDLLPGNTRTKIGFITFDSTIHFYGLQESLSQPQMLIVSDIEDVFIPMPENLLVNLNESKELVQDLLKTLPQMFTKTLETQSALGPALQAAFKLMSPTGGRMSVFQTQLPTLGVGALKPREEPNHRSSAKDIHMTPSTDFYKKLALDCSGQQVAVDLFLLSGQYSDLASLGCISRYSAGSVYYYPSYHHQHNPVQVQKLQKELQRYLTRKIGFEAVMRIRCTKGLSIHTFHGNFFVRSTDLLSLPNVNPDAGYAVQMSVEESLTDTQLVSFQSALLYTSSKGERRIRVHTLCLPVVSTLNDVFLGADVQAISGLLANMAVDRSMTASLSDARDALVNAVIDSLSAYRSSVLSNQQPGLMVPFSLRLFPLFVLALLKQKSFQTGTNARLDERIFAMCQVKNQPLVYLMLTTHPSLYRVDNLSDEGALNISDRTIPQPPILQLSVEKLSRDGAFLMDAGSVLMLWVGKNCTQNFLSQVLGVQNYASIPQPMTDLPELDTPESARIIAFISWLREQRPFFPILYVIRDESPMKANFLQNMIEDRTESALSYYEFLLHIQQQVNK
Put plainly: membrane flotation assay; 15 ug Sec24a^341 incubated with 15 ug Kv1.3 proteoliposomes (DOPC:DOPS 95:5) in 25 mM Tris, 150 mM NaCl, 160 mM KOAc, 1 mM MgOAc, pH 7.5, 30 % sucrose, 32 °C for 1 h; overlaid with 25 % and 0 % sucrose, 200,000 g for 1 h at 4 °C; fractions read by Western blot. The note with it: both partners purified. A general note: A western blot detects proteins with antibodies after separation by electrophoresis.

B1: Kv1.3 (mouse Shaker-type voltage-gated potassium channel subfamily member 3), recombinant, His6-tagged (natural protein, UniProt P16390 1-528, looked up)
chain: MTVVPGDHLLEPEAAGGGGGDPPQGGCGSGGGGGGCDRYEPLPPALPAAGEQDCCGERVVINISGLRFETQLKTLCQFPETLLGDPKRRMRYFDPLRNEYFFDRNRPSFDAILYYYQSGGRIRRPVNVPIDIFSEEIRFYQLGEEAMEKFREDEGFLREEERPLPRRDFQRQVWLLFEYPESSGPARGIAIVSVLVILISIVIFCLETLPEFRDEKDYPASPSQDVFEAANNSTSGAPSGASSFSDPFFVVETLCIIWFSFELLVRFFACPSKATFSRNIMNLIDIVAIIPYFITLGTELAERQGNGQQAMSLAILRVIRLVRVFRIFKLSRHSKGLQILGQTLKASMRELGLLIFFLFIGVILFSSAVYFAEADDPSSGFNSIPDAFWWAVVTMTTVGYGDMHPVTIGGKIVGSLCAIAGVLTIALPVPVIVSNFNYFYHRETEGEEQAQYMHVGSCQHLSSSAEELRKARSNSTLSKSEYMVIEEGGMNHSAFPQTPFKTGNSTATCTTNNNPNSCVNIKKIFTDV
modifications: phosphorylated, sites not stated (non-dephosphorylated tetramers were used for reconstitution)
notes: Kv1.3, mouse; wild type cDNA cut from Kv1.3-pcDNA3 at the Nco and Kpn sites and ligated into pFastbac HT; Integral membrane protein; a monomer runs at ~65 kDa; No TEV cleavage of the tag is described; also called Kv1.3 tetramers; Kv1.3 proteoliposomes; source: Hi5 insect cells (baculovirus), purified (cobalt Chelating Sepharose, Superose 6) in Fos-12; reconstituted into DOPC:DOPS proteoliposomes, …
The stoichiometry N is the number of molecules, sites or subunits per partner or assembly. With B1, in data set [1], the “stoichiometry N” value amounted to 4. In data set [2], the binding result is on record as “binds”.
